Reference: the Human Domainome abundance scans (Beltran et al. 2025)
± gives the uncertainty stated by the source.

B1: Histone-lysine N-methyltransferase 2A, residues 1148 to 1194; numbered along this chain, Q03164 (parent)
chain: KGRRSRRCGQCPGCQVPEDCGVCTNCLDKPKFGGRNIKKQCCKMRKC
B2: POU domain, class 3, transcription factor 3, residues 320 to 388; numbered along this chain, P20264 (parent)
chain: DDLEQFAKQFKQRRIKLGFTQADVGLALGTLYGNVFSQTTICRFEALQLSFKNMCKLKPLLNKWLEEAD

Variants of: B1
Experiment: abundance fitness (aPCA) (normalised: wild type 0, dead -1); higher = more abundant; growth selection in yeast, the domain comes from the species named
Settings: Homo sapiens

Abundance fitness, by site and new letter:
G2: F -0.701 ± 0.38; W -0.79 ± 0.16; L -0.303 ± 0.11; D 0.186 ± 0.088; Q -0.007 ± 0.17; A -0.403 ± 0.12; E 0.013 ± 0.12; V -0.275 ± 0.098; K -0.569 ± 0.23; S -0.213 ± 0.086; R -0.413 ± 0.12
K1: G -0.676 ± 0.3; V -0.43 ± 0.31; S -0.232 ± 0.18; D -0.341 ± 0.28; E 0.47 ± 0.24; Y -0.299 ± 0.33; T -0.659 ± 0.21; P -0.662 ± 0.44; M -0.337 ± 0.17; R -0.285 ± 0.21
R3: F 0.097 ± 0.17; C 0.012 ± 0.11; G -0.091 ± 0.08; A -0.123 ± 0.089; D -0.185 ± 0.18; E -0.038 ± 0.13

Variants of: B2
Experiment: as above
Settings: Homo sapiens

Abundance fitness, by site and new letter:
A46: E -0.178 ± 0.15; I -0.727 ± 0.2; R -0.277 ± 0.12; H -0.043 ± 0.15; M 0.22 ± 0.18; C -0.299 ± 0.13; T -0.142 ± 0.14; V -0.702 ± 0.16; Q -0.282 ± 0.29; K 0.205 ± 0.17; G -0.053 ± 0.035; W -0.601 ± 0.17; P -0.843 ± 0.22; S -0.059 ± 0.1; D -0.573 ± 0.37
E45: M -0.82 ± 0.36; R -0.891 ± 0.18; W -0.787 ± 0.18; P -0.803 ± 0.33; T -0.729 ± 0.2; K -0.649 ± 0.17; A -0.511 ± 0.21; G -0.982 ± 0.23; Q 0.081 ± 0.18; F -0.58 ± 0.48; V -0.946 ± 0.39; S -0.628 ± 0.23; L -0.628 ± 0.22
P59: C -0.064 ± 0.12; W -0.986 ± 0.35; L -0.378 ± 0.2; K -0.247 ± 0.21; M -0.279 ± 0.15; S -0.398 ± 0.16; G -0.166 ± 0.17; R -0.389 ± 0.084; E -0.353 ± 0.3; V -0.377 ± 0.13; T -0.459 ± 0.2; Q -0.333 ± 0.12
L61: E -0.99 ± 0.35; A -0.803 ± 0.21; C -0.796 ± 0.37; W -0.881 ± 0.24; I -0.696 ± 0.23; M -0.522 ± 0.14; T -0.513 ± 0.25; K -0.66 ± 0.39; V -0.513 ± 0.11; G -0.891 ± 0.17; P -0.928 ± 0.25; R -0.97 ± 0.17; Q -0.811 ± 0.27; S -0.977 ± 0.3
N53: I -0.167 ± 0.18; T 0.051 ± 0.083; C -0.255 ± 0.15; Y -0.357 ± 0.17; P -0.613 ± 0.12; E 0.049 ± 0.1; M 0.114 ± 0.069; V -0.306 ± 0.093; S -0.257 ± 0.069; D 0.012 ± 0.16; G -0.148 ± 0.04; L -0.148 ± 0.059; F -0.513 ± 0.23; R -0.037 ± 0.052; H -0.09 ± 0.14; Q -0.044 ± 0.074; A -0.035 ± 0.04; W -0.102 ± 0.046
K56: S -0.181 ± 0.08; F -0.11 ± 0.19; L -0.079 ± 0.064; Y -0.753 ± 0.45; D -0.163 ± 0.14; C -0.391 ± 0.16; E -0.066 ± 0.1; N -0.44 ± 0.24; M -0.173 ± 0.11; W -0.548 ± 0.12; G -0.539 ± 0.093; R 0.017 ± 0.053; I -0.063 ± 0.2; P -0.848 ± 0.28; H -0.61 ± 0.42
W64: I -0.715 ± 0.29; P -0.746 ± 0.47; G -0.77 ± 0.15; S -0.757 ± 0.3; Q -0.8 ± 0.34; M -0.83 ± 0.18; V -0.305 ± 0.12; R -0.582 ± 0.16; L -0.913 ± 0.16; H -0.778 ± 0.45; T -1.15 ± 0.42; E -0.792 ± 0.23; A -0.737 ± 0.16
L49: V -0.934 ± 0.16; R -0.385 ± 0.092; Y -0.582 ± 0.26; C -0.873 ± 0.29; K -0.548 ± 0.13; N -0.594 ± 0.34; I -1.01 ± 0.43; H -0.697 ± 0.18; W -0.021 ± 0.17; F -0.865 ± 0.4; M -0.078 ± 0.074; S -0.649 ± 0.11; E -0.573 ± 0.087; P -0.65 ± 0.18; A -0.441 ± 0.15; T -0.846 ± 0.17
S50: F -0.711 ± 0.32; N -0.922 ± 0.44; D -0.074 ± 0.14; K -0.302 ± 0.16; A -0.751 ± 0.25; V -1.04 ± 0.3; G -0.561 ± 0.12; L -0.833 ± 0.21; E -0.18 ± 0.16; P 0.034 ± 0.079; C -0.786 ± 0.26; Q 0.161 ± 0.13
C55: L -0.156 ± 0.081; P -0.874 ± 0.32; G -0.354 ± 0.048; K -0.009 ± 0.13; F 0.253 ± 0.19; H -0.199 ± 0.27; S -0.102 ± 0.1; I -0.046 ± 0.24; E -0.255 ± 0.18; Y -0.269 ± 0.3; M -0.032 ± 0.1; N -0.102 ± 0.24; V 0.019 ± 0.077; Q 0.209 ± 0.1; T -0.186 ± 0.095; W -0.177 ± 0.092
F51: D -0.14 ± 0.12; N -0.002 ± 0.15; Y -0.247 ± 0.18; I -0.51 ± 0.26; Q 0.142 ± 0.11; G -0.136 ± 0.088; W -0.567 ± 0.19; P 0.064 ± 0.06; K 0.132 ± 0.13; A -0.081 ± 0.081; H 0.051 ± 0.18; M -0.231 ± 0.11; T 0.061 ± 0.1; R 0.035 ± 0.065; V 0.013 ± 0.063; C -0.416 ± 0.13; S -0.002 ± 0.069; E 0.115 ± 0.11
L57: R -0.715 ± 0.091; G -0.78 ± 0.2; V -0.535 ± 0.082; M -0.279 ± 0.15; K -0.645 ± 0.36; T -0.698 ± 0.35; H -0.333 ± 0.2; A -0.602 ± 0.17; S -0.572 ± 0.16; E -1.16 ± 0.42; W -0.401 ± 0.12; P 0.029 ± 0.14
A68: Q -0.587 ± 0.32; M 0.303 ± 0.23; H -0.392 ± 0.45; L -0.705 ± 0.27; C -0.485 ± 0.36; S -0.082 ± 0.14; E -0.6 ± 0.23; N -0.163 ± 0.45; G -0.62 ± 0.25; R -0.248 ± 0.15; Y -0.176 ± 0.17
L47: F -0.293 ± 0.21; C 0.021 ± 0.38; G -0.038 ± 0.067; S -0.29 ± 0.12; V -0.039 ± 0.065; R 0.039 ± 0.067; H 0.083 ± 0.17; A -0.342 ± 0.15; E -0.662 ± 0.29; M 0.113 ± 0.21; Y -0.131 ± 0.2; D -0.661 ± 0.24; T -0.602 ± 0.17; K -0.111 ± 0.2; N 0.599 ± 0.44
M54: Q -0.7 ± 0.25; L -0.428 ± 0.095; I -0.911 ± 0.44; F -0.96 ± 0.35; W -0.801 ± 0.3; R -0.909 ± 0.2; S -0.483 ± 0.14; T -0.733 ± 0.45; P -1.05 ± 0.27; C -0.636 ± 0.28
N62: D 0.024 ± 0.24; K -0.12 ± 0.26; Q -0.028 ± 0.11; S 0.03 ± 0.046; H 0.11 ± 0.23; W -0.739 ± 0.27; G 0.052 ± 0.067; A 0.001 ± 0.084; L -0.126 ± 0.083; R -0.063 ± 0.076; V 0.148 ± 0.076
K52: N -0.093 ± 0.2
D69: P -0.128 ± 0.047; L -0.436 ± 0.16; S -0.573 ± 0.32; E -0.183 ± 0.25; T -0.314 ± 0.25
E67: R -0.015 ± 0.12; K -0.029 ± 0.23; L 0.333 ± 0.2; S 0.196 ± 0.23; Q -0.227 ± 0.18; T -0.134 ± 0.26; G -0.084 ± 0.099; V -0.321 ± 0.14; A -0.032 ± 0.097
F44: W -0.568 ± 0.15; V -0.678 ± 0.2
K63: D -0.349 ± 0.21; Q -0.066 ± 0.073; M -0.435 ± 0.1; F -0.149 ± 0.16; H -0.189 ± 0.05; P -0.77 ± 0.13; A -0.129 ± 0.06; G -0.074 ± 0.039; N -0.261 ± 0.13; S -0.317 ± 0.066; W -0.658 ± 0.093; I -0.697 ± 0.14; C -0.147 ± 0.11; V -0.743 ± 0.093; E -0.519 ± 0.13; Y -0.53 ± 0.12; L -0.493 ± 0.059
K58: A -0.337 ± 0.094; V -0.398 ± 0.24; I -0.416 ± 0.34; T -0.892 ± 0.17; L -0.875 ± 0.22; C 0.152 ± 0.27; S -0.796 ± 0.33; R 0.031 ± 0.087; G -0.852 ± 0.22
L65: W -0.297 ± 0.098; T -0.732 ± 0.37; C -0.846 ± 0.37; R -0.674 ± 0.13; G -0.935 ± 0.29; M -0.185 ± 0.12; S -0.58 ± 0.1; F -0.633 ± 0.47; Q -0.73 ± 0.15; K -0.211 ± 0.11; I -0.513 ± 0.36
E66: L -0.428 ± 0.12; K -0.123 ± 0.084; N 0.122 ± 0.14; R -0.146 ± 0.17; V -0.225 ± 0.12; D 0.402 ± 0.26; S -0.502 ± 0.35; F -0.127 ± 0.19; T -0.132 ± 0.21; H 0.082 ± 0.37; G -0.889 ± 0.33; I 0.075 ± 0.21; M 0.002 ± 0.098; C -0.046 ± 0.37; Y -0.635 ± 0.31
Q48: R -0.416 ± 0.13; M -0.599 ± 0.19; I -0.835 ± 0.36; W -0.453 ± 0.22; T -0.187 ± 0.24; L -0.375 ± 0.21; G -0.264 ± 0.19; A -0.612 ± 0.24; K -0.177 ± 0.2; S -0.205 ± 0.098; E -0.088 ± 0.18
L60: V -0.309 ± 0.17; R -0.491 ± 0.47; A -0.51 ± 0.46; S -0.563 ± 0.33; K -0.334 ± 0.22; W -0.227 ± 0.26
